Source: patent publication US20100280227A1 (Genentech, published 2010)
Residue numbers refer to the chain shown, from its start. Names may count otherwise. “And” between values parts separate entries of the source, which are not always exact repeats. Identical values can stand only once. Like-named read-outs stand apart in the source and are kept apart here. One block for each binder: values may come before it.

Assays:
[1] = target: T1, human BR3 extracellular domain (human, UniProt Q96RJ3 1-61); test: SPR, BR3 ECD on chip;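 note: Anti-BR3 antibodies passed over the chip at high flow in PBS with 0.05% polysorbate 20, on and off rates fitted together globally to a 1:1 binding model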
T1 construct: biotinylated where used as tracer; also called hBR3-ECD; BR3-ECD
Procedure: (§1) After coupling, unoccupied sites on the chip were blocked by injecting 20 μl of 1M ethanolamine, pH 8.5. The running buffer was PBS containing 0.05% polysorbate 20. […] The binding surface was regenerated by injecting 20-30 μl of 10 mM glycine.HCl (pH 1.5). […] Data were analyzed using a 1:1 binding model using global fitting. The association and dissociation rate constants were fitted simultaneously (BIAevaluation software).
(§2) A high flow rate was used in order to minimize mass transport effects.

[2] = target: T2, variant human BR3-Fc fusion; test: SPR, vBR3-Fc on chip;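 note: Anti-BR3 antibodies passed over chip-bound BR3-Fc in PBS with 0.05% polysorbate 20, on and off rates fitted together globally to a 1:1 binding model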
T2 construct: produced in CHO cells; also called vBR3-Fc; vhBR3-Fc
Procedure: as §1, §2

[3] = target: T1, human BR3 extracellular domain; test: BIAcore, Fab over immobilised target
Procedure: (§3) Each sample was analysed with 2-minute association and 20-minute dissociation. After each injection the chip was regenerated using 10 mM Glycine pH 1.5. Binding response was corrected by subtracting the RU from a blank flow cell. A 1:1 Languir model of simultaneous fitting of kₒₙ and koff was used for kinetics analysis.

[4] = target: T3, human BR3 expressed on cells (human, UniProt Q96RJ3 1-184); test: BJAB cells, competition with biotin-BAFF
T3 construct: whole, on cells; also called BR3 on BJAB cells; cell surface BR3
Procedure: (§4) The diluted samples were added to the pelleted BJAB cells in 96 well plates as described above. After 45 min incubation on ice, the cells were washed twice with 200 μl cold assay buffer, and streptavidin-HRP (AMDEX, Amersham Biosciences, Piscataway, N.J.) diluted 1/5,000 in assay buffer was added (100 μl/well). The plates were incubated for a final 45 min on ice. After washing twice with cold assay buffer, color was developed using TMB, the reaction was stopped with H₃PO₄, and the plates were read as described above.

[5] = target: T3, human BR3 expressed on cells; test: BJAB cells, competition with biotin-BAFF; remark: listed apart in the source
Procedure: as §4

[6] = target: T3, human BR3 expressed on cells; test: BJAB cells, direct binding
Procedure: Direct and competitive binding assays were performed as follows. For the direct binding assay, IgG antibody samples were serially diluted in cold assay buffer to concentrations ranging between 300-0.02 nM. Samples (100 μl) were added to the pelleted cells, and the plates were incubated for 45 min on ice. An additional 100 μl assay buffer was then added to each well, and the plates were centrifuged at 1200 rpm for 5 min at 4° C. After carefully aspirating the supernatant, the cells were washed two additional times with 200 μl assay buffer. An anti-mouse IgG Fc-HRP or goat anti-human IgG Fc-HRP, as appropriate, was diluted 1/10,000 in cold assay buffer was added (100 μl/well, Jackson ImmunoResearch, West Grove, Pa.), and the plates were incubated on ice for 45 min. Following two washes with 200 μl cold assay buffer, tetramethyl benzidine (TMB, Kirkegaard & Perry Laboratories, Gaithersburg, Md.) was added, and color was allowed to develop for 10 min. One hundred microliters 1 M H₃PO₄ was added to stop the reaction. The plates were then read on a microplate reader at 450 nm with a 620 nm reference. In the direct binding assay, the indicated concentrations of mAbs were added to BJAB cells and bound mAb was detected.

[7] = target: T2, variant human BR3-Fc fusion; test: BIAcore, Fab over immobilised target
Procedure: as §3

[8] = target: T4, mouse BR3 extracellular domain (mouse, UniProt Q9D8D0 1-64); test: SPR, IgG on chip, BR3 ECD in solution
T4 construct: also called mBR3-ECD; mBR-ECD
T4 sequence: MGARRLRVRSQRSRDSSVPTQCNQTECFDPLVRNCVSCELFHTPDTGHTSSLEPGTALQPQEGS

[9] = target: T1, human BR3 extracellular domain; test: SPR, IgG on chip, BR3 ECD in solution
[10] = target: T4, mouse BR3 extracellular domain; test: F(ab)'2 phage solution binding competition ELISA
Procedure: (§5) Third, a competition ELISA was performed. […] The wells were blocked by adding 65 ul 1% BSA for 30 minutes followed by 40 ul 1% Tween20 for another 30 minutes. The wells were washed with PBS—0.05% Tween20 5 times. […] The wells of the second plate were washed with PBS—0.5% Tween20 at least three times. 75 ul of HRP-conjugated anti-M13 antibody (1/5000 dilution with ELISA buffer) per well was added and incubated at room temperature for 30 minutes. The wells were washed again with PBS—0.05% Tween20 at least five times.

[11] = target: T1, human BR3 extracellular domain; test: F(ab)'2 phage solution binding competition ELISA
Procedure: as §5

mouse BR3-Fc = target: T5, mouse BR3-Fc (mouse); test: F(ab)'2 phage solution binding competition ELISA
T5 construct: (BR3 ECD fused to a murine Fc); also called mBR3-Fc; murine BR3-Fc
T5 chain: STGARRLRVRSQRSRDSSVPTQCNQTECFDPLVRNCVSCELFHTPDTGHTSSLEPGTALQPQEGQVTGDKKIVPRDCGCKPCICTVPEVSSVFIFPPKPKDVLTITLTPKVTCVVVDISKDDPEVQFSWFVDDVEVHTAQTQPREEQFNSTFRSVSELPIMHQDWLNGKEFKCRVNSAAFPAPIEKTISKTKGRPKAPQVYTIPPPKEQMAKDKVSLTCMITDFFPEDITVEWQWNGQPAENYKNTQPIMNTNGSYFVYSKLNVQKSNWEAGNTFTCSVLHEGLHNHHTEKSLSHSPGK
Procedure: as §5

[12] = target: T4, mouse BR3 extracellular domain; test: SPR BIAcore-2000, mBR3-ECD on chip, Fab injected
Source text: (§6) Biacore measurement Surface plasmon resonance assays on a BIAcore™-2000 were used to determine the affinity of anti-BR3 Fabs. […] For kinetics analysis, 1:1 Languir model of simultaneous fitting of kₒₙ and koff was used.

[13] = target: T1, human BR3 extracellular domain; test: SPR BIAcore-2000, hBR3-ECD on chip, Fab injected
Source text: as §6

[14] = target: T4, mouse BR3 extracellular domain; test: SPR BIAcore-3000, Fab
Source text: (§7) Surface plasmon resonance assays on a BIAcore™-3000 were used to determine the affinity of the Fabs.

[15] = target: T1, human BR3 extracellular domain; test: SPR BIAcore-3000, Fab
Source text: as §7

B1: chimeric 2.1 Fab (Fab, V domains shown)
VH: EVQLQESGPSLVKPSQTLSLTCSVTGDSITRGYWNWIRKFPGNKLEFMGYINYSGTTYYNPSLKSRISITRDTSKNQYYLQLNSVTTEDTATYYCATPHTYGAMDYWGQGTTLTVSA
VL: DIVLTQSPVSLAVSLGQRATISCRASESVDDYGISFMHWYQQKPGQPPKLLIYRASDLESGIPARFSGSGSGTDFTLTINPVETDDVAIYYCQQTSKDPWTFGGGT
notes: Fab with murine variable domains; also called Ch 2.1 Fab
- Kd [1]: 0.12 nM and 0.11 nM
- koff [1]: 0.000271 s⁻¹ and 0.000294 s⁻¹
- kon [1]: 2.25e+06 M⁻¹ s⁻¹ and 2.65e+06 M⁻¹ s⁻¹
- Kd ([2]; 140 RU BR3-Fc immobilized): 1.12 nM
- koff ([2]; 140 RU BR3-Fc immobilized): 0.00148 s⁻¹
- kon ([2]; 140 RU BR3-Fc immobilized): 1.32e+06 M⁻¹ s⁻¹
- Kd ([2]; 220 RU BR3-Fc immobilized): 0.92 nM
- koff ([2]; 220 RU BR3-Fc immobilized): 0.00145 s⁻¹
- kon ([2]; 220 RU BR3-Fc immobilized): 1.58e+06 M⁻¹ s⁻¹
- Kd [3]: 0.115 nM

B3: Hu9.1-73 Fab (Fab, V domains shown)
VH: EVQLVESGGGLVQPGGSLRLSCAASGLPMAGFYTSWVRQAPGKGLEWVGFIRDKANGYTTEYNPSVKGRFTISADTSKNTAYLQMNSLRAEDTAVYYCAQVRRALDYWGQGTLVTVSS
VL: DIQMTQSPSSLSASVGDRVTITCKSSQSLLYSSNQNNYLAWYQQKPGKAPKLLIYWAQHLDSGVPSRFSGSGSGTDFTLTISSLQPEDFATYYCQQYYTYPYTFGQGTKVEIKR
notes: Fab expressed in E. coli
- Kd [1]: 0.31 nM and 0.32 nM
- koff [1]: 0.000174 s⁻¹ and 0.000175 s⁻¹
- kon [1]: 560000 M⁻¹ s⁻¹ and 550000 M⁻¹ s⁻¹
- Kd [2]: 0.43 nM and 0.48 nM
- koff [2]: 0.000215 s⁻¹ and 0.000225 s⁻¹
- kon [2]: 500000 M⁻¹ s⁻¹ and 470000 M⁻¹ s⁻¹
- Kd [7]: 0.45 nM

B4: Hu9.1-88 Fab (Fab, V domains shown)
VH: B3 VH with L27F, M29V, A30T, F32S, T34V, A74R, A81L
VL: B3 VL with Q58S, H59T, L60R, D61E
notes: Fab
- Kd [1]: 0.736 nM
- koff [1]: 0.00101 s⁻¹
- kon [1]: 1.37e+06 M⁻¹ s⁻¹
- Kd [2]: 1.37 nM
- koff [2]: 0.000742 s⁻¹
- kon [2]: 541000 M⁻¹ s⁻¹
- Kd [7]: 11 nM
- Kd [3]: 6.3 nM

B6: 44 (Fab, V domains shown)
VH: EVQLVESGGGLVQPGGSLRLSCAASGFTITGSYIHWVRQAPGKGLEWVAWIYPDGGYTDYADSVKGRFTISADTSKNTAYLQMNSLRAEDTAVYYCASKPAGPFGYWGQGTLVTVSS
VL: DIQMTQSPSSLSASVGDRVTITCRASQDVSTAVAWYQQKPGKAPKLLIYSASFLYSGVPSRFSGSGSGTDFTLTISSLQPEDFATYYCQQSYTTPPTFGQGTKVEIKR
notes: also called V44; clone 44
- IC50 [10]: 1500 nM
- binding result [11]: no binding

B7: 46 (Fab, V domains shown)
VH: EVQLVESGGGLVQPGGSLRLSCAASGFTITGSYIHWVRQAPGKGLEWVAWIYPDGGYTDYADSVKGRFTISADTSKNTAYLQMNSLRAEDTAVYYCASKPAGFGYWGQGTLVTVSS
VL: B6 VL
notes: also called V46; clone 46 of the naive library (not V3-46)
- binding result [11]: binds
- binding result (mouse BR3-Fc): binds

B8: V3-46s Fab (Fab, V domains shown)
VH: EVQLVESGGGLVQPGGSLRLSCAASGFTISSSSIHWVRQAPGKGLEWVAWVLPSVGFTDYADSVKGRFTISADTSKNTAYLQMNSLRAEDTAVYYCARRVCYNRLGVCAGGMDYWGQGTLVTVSS
VL: B6 VL with Y92Q, T93I, T94S
notes: N31S mutant of V3-46; also called V46s; N31S
- Kd [12]: 1 nM
- koff [12]: 0.00027 s⁻¹
- kon [12]: 270000 M⁻¹ s⁻¹
- Kd [13]: 0.6 nM
- koff [13]: 8.6e-05 s⁻¹
- kon [13]: 140000 M⁻¹ s⁻¹
- Kd [14]: 1 nM
- koff [14]: 0.00027 s⁻¹
- kon [14]: 270000 M⁻¹ s⁻¹
- Kd [15]: 0.6 nM
- koff [15]: 8.6e-05 s⁻¹
- kon [15]: 140000 M⁻¹ s⁻¹

B11: V3-1h (antibody, human IgG1, V domains shown)
VH: B8 VH with S32N, V51I, L52T, V55D, F57N
VL: B6 VL with Y92R, T93I
- IC50 [5]: 5.97 nM

Continued, values first:

- Kd [1]: 0.04 nM
- koff [1]: 6.8e-05 s⁻¹
- kon [1]: 1.68e+06 M⁻¹ s⁻¹
- IC50 [4]: 0.2 nM
- Kd [2]: 0.04 nM
- koff [2]: 3.8e-05 s⁻¹
- kon [2]: 980000 M⁻¹ s⁻¹
- IC50 [5]: 0.23 nM
- EC50 [6]: 0.14 nM
B2: chimeric 2.1 IgG (antibody, V domains shown)
VH: B1 VH
VL: B1 VL
notes: also called Ch 2.1 IgG; ch 2.1

- Kd [8]: 1.17 nM
- koff [8]: 0.00014 s⁻¹
- kon [8]: 119000 M⁻¹ s⁻¹
- Kd [9]: 0.24 nM
- koff [9]: 7.31e-05 s⁻¹
- kon [9]: 300000 M⁻¹ s⁻¹
B5: mV3-46 IgG (antibody, V domains shown)
VH: B8 VH with S31N
VL: B6 VL with Y92Q, T93I, T94S
notes: IgG on chip

- binding result [10]: no binding
- binding result [11]: binds
B9: 51 (Fab, V domains shown)
VH: EVQLVESGGGLVQPGGSLRLSCAASGFTISSTGIHWVRQAPGKGLEWVGGISPSSGSTNYADSVKGRFTISADTSKNTAYLQMNSLRAEDTAVYYCARRKVVSSHVTNKYVMDYWGQGTLVTVSS
VL: B6 VL
notes: also called V51; clone 51

- binding result [10]: no binding
- binding result [11]: binds
- IC50 (mouse BR3-Fc): > 10000 nM
B10: 75 (Fab, V domains shown)
VH: EVQLVESGGGLVQPGGSLRLSCAASGFTINGSWIHWVRQAPGKGLEWVAWITPSNGSTDYADSVKGRFTISADTSKNTAYLQMNSLRAEDTAVYYCARLSRRPWLWGMDYWGQGTLVTVSS
VL: B6 VL
notes: also called V75; clone 75

- Kd [8]: 0.32 nM
- koff [8]: 9.51e-05 s⁻¹
- kon [8]: 298000 M⁻¹ s⁻¹
- Kd [9]: 0.02 nM
- koff [9]: 3.18e-05 s⁻¹
- kon [9]: 1.57e+06 M⁻¹ s⁻¹
B12: mV3-46s IgG (antibody, V domains shown)
VH: B8 VH
VL: B6 VL with Y92Q, T93I, T94S
notes: IgG on chip

- Kd [1]: 19.5 nM and 23.5 nM
- koff [1]: 0.0233 s⁻¹ and 0.0263 s⁻¹
- kon [1]: 1.2e+06 M⁻¹ s⁻¹ and 1.12e+06 M⁻¹ s⁻¹
- Kd [7]: > 100 nM
- Kd [3]: 21.5 nM
B13: chimeric 11G9 Fab (Fab, V domains shown)
VH: DVQLQESGPSLVKPSQTLSLTCSVTGDSITSGYWNWIRKFPGNKLEYMGYISYSGSTYYNPSLKSRISITRDTSKNQFYLQLLSVTTEDTATYYCAGLDGLYWYFDVWGAGTLVTVSS
VL: DIVMTQTPLSLPVSLGDQASISCRSSQSLVHSNGNTYLHWYLQKPGQSPKLLIYKVSNRFSGVPDRFSGSGSGTDFTLKISRVEAEDLGVYFCSQSTHVPPFTFGSGT
notes: Fab with murine variable domains; also called Ch 11G9 Fab

- Kd [1]: 0.34 nM
- koff [1]: 0.000549 s⁻¹
- kon [1]: 1.64e+06 M⁻¹ s⁻¹
- Kd [2]: 2.78 nM
- koff [2]: 0.00218 s⁻¹
- kon [2]: 780000 M⁻¹ s⁻¹
- IC50 [5]: 0.45 nM
B14: chimeric 11G9 IgG (antibody, V domains shown)
VH: B13 VH
VL: B13 VL
notes: also called Ch 11G9 IgG
